Test results: article PMC6181919, “A cysteine-based molecular code informs collagen C-propeptide assembly” (Nature Communications, 2018)

Tests used:
[1] = target: the molecule itself; assay: non-reducing SDS-PAGE immunoblot; conditioned media of transfected HEK293 cells, treated with 100 mM iodoacetamide, boiled in SDS, 12% gel, non-reducing; denaturing, shows disulfide-linked species only; two-colour detection of HA and FLAG
[2] = target: the molecule itself; assay: AUC; sedimentation equilibrium, 25 °C, 20 mM Bis-Tris propane pH 7, 150 mM NaCl, with 0.5 mM CaCl2; monomer to trimer
[3] = target: the molecule itself; assay: AUC; sedimentation equilibrium, 25 °C, 20 mM Bis-Tris propane pH 7, 150 mM NaCl, without Ca^2+; equilibrium constants are of monomer to dimer
[4] = target: the molecule itself; assay: SEC; size exclusion chromatography in the presence and absence of Ca^2+, compared to wild-type C-Proα1(I)
[5] = target: the molecule itself; assay: non-reducing SDS-PAGE immunoblot; cell lysate of transfected HEK293 cells (protein not secreted), non-reducing; denaturing, shows disulfide-linked species only

B1: wild-type, HA-tagged C-Proα1(I) (C-propeptide domain of human Colα1(I)) (domain or fragment)
chain: DDANVVRDRDLEVDTTLKSLSQQIENIRSPEGSRKNPARTCRDLKMCHSDWKSGEYWIDPNQGCNLDAIKVFCNMETGETCVYPTQPSVAQKNWYISKNPKDKRHVWFGESMTDGFQFEYGGQGSDPADVAIQLTFLRLMSTEASQNITYHCKNSVAYMDQQTGNLKKALLLQGSNEIEIRAEGNSRFTYSVTVDGCTSHTGAWGKTVIEYKTTKTSRLPIIDVAPLDVGAPDQEFGFDVGPVCFL
notes: C-propeptide (C-Pro) domain of human procollagen alpha1(I), from the endogenous C-proteinase cleavage site to the C-terminus; Secreted alone it is a disulfide-linked homotrimer; also called wild-type C-Proα1(I); Colα1(I) C-Pro; not shown: HA, N-terminal, kept
B1 was tested, and the “stoichiometry N” value [1] was 3.

B2: purified C2S (Cys1265Ser) C-Proα1(I), His tag cleaved (domain or fragment, human)
chain: DDANVVRDRDLEVDTTLKSLSQQIENIRSPEGSRKNPARTCRDLKMSHSDWKSGEYWIDPNQGCNLDAIKVFCNMETGETCVYPTQPSVAQKNWYISKNPKDKRHVWFGESMTDGFQFEYGGQGSDPADVAIQLTFLRLMSTEASQNITYHCKNSVAYMDQQTGNLKKALLLQGSNEIEIRAEGNSRFTYSVTVDGCTSHTGAWGKTVIEYKTTKTSRLPIIDVAPLDVGAPDQEFGFDVGPVCFL
modifications: glycosylated (a single N-glycosylation site in the polypeptide; site not given)
notes: C-propeptide (C-Pro) domain of human procollagen alpha1(I), from the endogenous C-proteinase cleavage site to the C-terminus; also called C2S C-Proα1(I); source: HEK293 Freestyle, transfected, secreted, purified (Ni-NTA, HRV-3C cleavage, second Ni-NTA, Superdex 200)
In the case of B2, the “stoichiometry N” value [2] is reported as 3, the Ka [3] is reported as 76300 M⁻¹ and the “stoichiometry N” value [3] is reported as 2.

B3: Asp1277His C-Proα1(I) (domain or fragment, human)
chain: DDANVVRDRDLEVDTTLKSLSQQIENIRSPEGSRKNPARTCRDLKMCHSDWKSGEYWIHPNQGCNLDAIKVFCNMETGETCVYPTQPSVAQKNWYISKNPKDKRHVWFGESMTDGFQFEYGGQGSDPADVAIQLTFLRLMSTEASQNITYHCKNSVAYMDQQTGNLKKALLLQGSNEIEIRAEGNSRFTYSVTVDGCTSHTGAWGKTVIEYKTTKTSRLPIIDVAPLDVGAPDQEFGFDVGPVCFL
notes: C-propeptide (C-Pro) domain of human procollagen alpha1(I) with the osteogenesis imperfecta-causing substitution Asp1277His
In the case of B3, the “stoichiometry N” value [4] is reported as 2.

B4: wild-type, HA-tagged C-Proα2(XI) (domain or fragment, human, UniProt P13942 1501-1736, looked up)
chain: IQPLPIQMPKKTRRSVDGSRLMQEDEAIPTGGAPGSPGGLEEIFGSLDSLREEIEQMRRPTGTQDSPARTCQDLKLCHPELPDGEYWVDPNQGCARDAFRVFCNFTAGGETCVTPRDDVTQFSYVDSEGSPVGVVQLTFLRLLSVSAHQDVSYPCSGAARDGPLRLRGANEDELSPETSPYVKEFRDGCQTQQGRTVLEVRTPVLEQLPVLDASFSDLGAPPRRGGVLLGPVCFMG
notes: C-propeptide (C-Pro) domain of human procollagen alpha2(XI); gene bought from Genewiz; source: HEK293, transfected, not secreted, in cell lysate; not shown: HA, N-terminal, kept
For B4, the “stoichiometry N” value [5] was 3.

B5: purified wild-type C-Proα1(I), His tag cleaved (domain or fragment, human)
chain: DDANVVRDRDLEVDTTLKSLSQQIENIRSPEGSRKNPARTCRDLKMCHSDWKSGEYWIDPNQGCNLDAIKVFCNMETGETCVYPTQPSVAQKNWYISKNPKDKRHVWFGESMTDGFQFEYGGQGSDPADVAIQLTFLRLMSTEASQNITYHCKNSVAYMDQQTGNLKKALLLQGSNEIEIRAEGNSRFTYSVTVDGCTSHTGAWGKTVIEYKTTKTSRLPIIDVAPLDVGAPDQEFGFDVGPVCFL
modifications: glycosylated (a single N-glycosylation site in the polypeptide; site not given)
notes: C-propeptide (C-Pro) domain of human procollagen alpha1(I), from the endogenous C-proteinase cleavage site to the C-terminus; The HA/FLAG vectors were modified to carry a cleavable 6x-His tag with an HRV-3C site; Interstrand disulfide-linked homotrimer; source: HEK293 Freestyle, transfected, secreted, purified (Ni-NTA, HRV-3C cleavage, second Ni-NTA, Superdex 200)
For B5, the “stoichiometry N” value [3] was 3.
